System: MS2 coat protein
Assay: apparent KD of MS2 coat protein; designed switch direction (-1 OFF switch, 1 ON switch): 1; higher = weaker reporter binding
Outline: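 RNA switches sharing common flanks were transcribed by stalled E. coli RNA polymerase on Illumina chips. A doubling series of SNAP-549-labelled MS2 coat protein, from 0.7 or 1.5 nM to 3 µM, was applied in Tris-HCl pH 7.5 buffer with KCl, MgCl2, BSA, DTT, tRNA and Tween-20. Each step lasted 0.8–1.5 h at the bottom of the series and 10–20 min at the top. Normalised cluster fluorescence was curve-fitted, giving apparent KD as the per-design median over clusters.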

[1] = input ligand: microRNA oligo, concentration not stated
[2] = Eterna round: R95, input ligand: FMN 200 uM
[3] = Eterna round: R95, input ligand: microRNA oligo, concentration not stated
[4] = Eterna round: R95, input ligand: none

## UGCCUGAGUCGAGGAUAUUAUGGAUCAAUUAAUACAUGAGGAUCACCCAUGUAAUUAAUUUAACAUGAGAAGGUGACUCAGGCA [SSNG2/10-B2] (Eterna round: R96, puzzle: Same State NG 2)
Input ligand: FMN 200 uM
  apparent KD of MS2 coat protein: 14.9 nM
[1]
  apparent KD of MS2 coat protein: 12.2 nM
Input ligand: none
  apparent KD of MS2 coat protein: 9.99 nM

## UGCCUGAGUCGAGGAUAUUAUGGAUCCUCUAAUACAUGAGGAUCACCCAUGUAAUUAAUUAUACAUGAGAAGGCGACUCAGGCU [SSNG2/12-A1] (Eterna round: R96, puzzle: Same State NG 2)
Input ligand: FMN 200 uM
  apparent KD of MS2 coat protein: 304 nM
[1]
  apparent KD of MS2 coat protein: 22.3 nM
Input ligand: none
  apparent KD of MS2 coat protein: 46.5 nM

## UGCCUGAGUCGAGGAUAUUAUGGAUCCUUUAAUACAUGAGGAUCACCCAUGUAAUUAAUUAUACAUGAGAAGGCGACUCAGGCA [SSNG2/11-A2] (Eterna round: R96, puzzle: Same State NG 2)
Input ligand: FMN 200 uM
  apparent KD of MS2 coat protein: 17.4 nM
[1]
  apparent KD of MS2 coat protein: 97 nM
Input ligand: none
  apparent KD of MS2 coat protein: 90.1 nM

## UGGAUCUAGGCUUGCCUGGGUCCAUGCUGACAUGAGGAUCACCCAUGUGCAUUCUAUAAGCUUUUUGCUUGUCAGCU (puzzle: Sensor for hsa-mir-208a)
[2]
  apparent KD of MS2 coat protein: 373 nM
[3]
  apparent KD of MS2 coat protein: 91 nM
[4]
  apparent KD of MS2 coat protein: 441 nM

## UGGCUCAGACGAGGAUAUAUGUGAUCACAUGAGGAUCACCCAUGUCUCGAGCUUCGGCUCGAGACAUAGAAGGCGUCUGAGCCA [SSNG2/3-A2] (Eterna round: R96, puzzle: Same State NG 2)
Input ligand: FMN 200 uM
  apparent KD of MS2 coat protein: 118 nM
[1]
  apparent KD of MS2 coat protein: 66.3 nM
Input ligand: none
  apparent KD of MS2 coat protein: 18.5 nM

## UGGCUCAGAGCAGGAUAUAUGUCUCGAGCUUCGGCUCGAGACAUGAGGAUCACCCAUGUAAUAACAUAGAAGGGCUCUGAGCCU [SSNG2/1-B3] (Eterna round: R96, puzzle: Same State NG 2)
Input ligand: FMN 200 uM
  apparent KD of MS2 coat protein: 15.8 nM
[1]
  apparent KD of MS2 coat protein: 42 nM
Input ligand: none
  apparent KD of MS2 coat protein: 53.3 nM

## UGGUACAUGGGAGGAUAUCCUCAGGAGACAUGAGGAUCACCCAUGUAAUAUAAGCCGAAAGGCAUGGAGAAGGCCCAUGUACCU [JL SSNG1 3.81] (Eterna round: R96, puzzle: Same State NG 2)
Input ligand: FMN 200 uM
  apparent KD of MS2 coat protein: 27.6 nM
[1]
  apparent KD of MS2 coat protein: 150 nM
Input ligand: none
  apparent KD of MS2 coat protein: 167 nM

## UGGUACAUGGGAGGAUAUCUCAUGGAGACAUGAGGAUCACCCAUGUAGAUCGACGGUAACGUCGGAGAGAAGGCCCAUGUACCU [MOD JL SSNG1 3.70] (Eterna round: R96, puzzle: Same State NG 2)
Input ligand: FMN 200 uM
  apparent KD of MS2 coat protein: 17.4 nM
[1]
  apparent KD of MS2 coat protein: 32.6 nM
Input ligand: none
  apparent KD of MS2 coat protein: 50 nM

## UGGUACAUGGGAGGAUAUCUCAUGGAGACAUGAGGAUCACCCAUGUAGUAGGACCGGAAACGGUGAGAGAAGGCCCAUGUACCU [JL SSNG1 3.73] (Eterna round: R96, puzzle: Same State NG 2)
Input ligand: FMN 200 uM
  apparent KD of MS2 coat protein: 26.6 nM
[1]
  apparent KD of MS2 coat protein: 40.5 nM
Input ligand: none
  apparent KD of MS2 coat protein: 51.5 nM

## UGGUACAUGGGAGGAUAUCUCAUGGAGACAUGAGGAUCACCCAUGUAGUUGGACCGGAAACGGUGAGAGAAGGCCCAUGUACCU [JL SSNG1 3.72] (Eterna round: R96, puzzle: Same State NG 2)
Input ligand: FMN 200 uM
  apparent KD of MS2 coat protein: 30.2 nM
[1]
  apparent KD of MS2 coat protein: 52.8 nM
Input ligand: none
  apparent KD of MS2 coat protein: 59.6 nM

## UGUUAACAUGAGGAUCACCCAUGUCAAAUGAAGCGAGGAUAUGGAAAGUAAUAAGAUGAACUAGAAGGUGUAGAUG [Altered State 1-21 - Jieux - Same State 1] (puzzle: Same State 1)
[2]
  apparent KD of MS2 coat protein: 40.5 nM
[3]
  apparent KD of MS2 coat protein: 48.4 nM
[4]
  apparent KD of MS2 coat protein: 52.8 nM

## UGUUGUAUUACAGGAUAUCUAUUGAUUUUAUUUAGAGAAGGGUAUUCACAUGAGGAUCACCCAUGUAUAUACGAGGAAGUUGUG [JMF's solution 71] (Eterna round: R96, puzzle: Same State NG 1)
[1]
  apparent KD of MS2 coat protein: 41.5 nM

## UGUUGUAUUACAGGAUAUCUAUUGUUGUUAUUUAGAGAAGGGUAUUCACAUGAGGAUCACCCAUGUAUAUACGAGGAAGUUGUG [JMF's solution 75] (Eterna round: R96, puzzle: Same State NG 1)
[1]
  apparent KD of MS2 coat protein: 41.9 nM

Source: the supplement of paper PMC9170038
